Seven substances from article PMC3701638 can be followed below.

This experiment addresses α-casein.
As to “GST-CK1δ^S370A (FP1030) (from UniProt Q06486 1-415) (enzyme)”, the Km of α-casein phosphorylation by the kinase (in vitro kinase assay, Michaelis-Menten fit) was 7.38 µM.
As for “GST-CK1δ^(S328A, T397A) (FP1268) (from UniProt Q06486 1-415) (enzyme)”, the Km of α-casein phosphorylation by the kinase (in vitro kinase assay, Michaelis-Menten fit) worked out at 6.63 µM.
Under “GST-CK1δ^(S328A, S370A) (FP1292) (from UniProt Q06486 1-415) (enzyme)” stands 5.31 µM.
As to “GST-CK1δ^(S328A, S370A, T397A) (FP1293) (from UniProt Q06486 1-415) (enzyme)”, the Km of α-casein phosphorylation by the kinase (in vitro kinase assay, Michaelis-Menten fit) came to 7.74 µM.
As for “GST-CK1δ^T397A (FP1184) (from UniProt Q06486 1-415) (enzyme)”, the Km of α-casein phosphorylation by the kinase (in vitro kinase assay, Michaelis-Menten fit) came to 7.2 µM.
With “GST-CK1δ (FP449), wild-type full length rat CK1δ (from UniProt Q06486 1-415) (enzyme)” the figure was 4.84 µM; with “GST-CK1δ^S328A (FP1267) (from UniProt Q06486 1-415) (enzyme)”, 5.49 µM.
